Patent US20240052036A1 (Merck Sharp & Dohme, published 2024)

Target: T1, recombinant human LAG-3 (rhLAG-3) (human, UniProt P18627 23-450, limits assumed)
T1 construct: also called CD223
T1 sequence (looked up): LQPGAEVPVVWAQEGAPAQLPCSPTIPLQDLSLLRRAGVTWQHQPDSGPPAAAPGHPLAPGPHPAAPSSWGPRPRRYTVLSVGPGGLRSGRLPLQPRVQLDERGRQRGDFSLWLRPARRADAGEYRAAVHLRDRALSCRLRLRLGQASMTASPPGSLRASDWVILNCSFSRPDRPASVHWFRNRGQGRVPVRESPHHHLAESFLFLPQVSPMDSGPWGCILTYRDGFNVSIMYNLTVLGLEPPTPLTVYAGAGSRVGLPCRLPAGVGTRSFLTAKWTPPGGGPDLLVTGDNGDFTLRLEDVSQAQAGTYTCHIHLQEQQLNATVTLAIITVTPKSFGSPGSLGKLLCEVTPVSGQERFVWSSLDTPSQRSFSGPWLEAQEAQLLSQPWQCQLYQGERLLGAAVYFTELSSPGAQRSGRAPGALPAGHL
Experiment: binding ELISA, immobilized rhLAG-3, 4-parameter fit, relative potency
Method: The potency assay assesses anti-LAG3 activity in Formulation A through anti-LAG3 binding to immobilized recombinant human LAG-3 (rhLAG-3). Dose response curves were generated by using serial dilutions of anti-LAG3 reference material and test samples. […] Relative potency was calculated by applying Parallel Line Analysis of dose-response curves in SoftMax® Pro. Potency of a test sample was reported as geometric mean potency relative to the reference material with a geometric standard deviation and 95% confidence interval.

B1: anti-LAG3 antibody (SEQ ID NOs: 35 and 57, light and heavy chains) (antibody, human IgG4 S228P, kappa, V domains shown)
VH: QMQLVQSGPEVKKPGTSVKVSCKASGYTFTDYNVDWVRQARGQRLEWIGDINPNDGGTIYAQKFQERVTITVDKSTSTAYMELSSLRSEDTAVYYCARNYRWFGAMDHWGQGTTVTVSS
VL: DIVMTQTPLSLSVTPGQPASISCKASQSLDYEGDSDMNWYLQKPGQPPQLLIYGASNLESGVPDRFSGSGSGTDFTLKISRVEAEDVGVYYCQQSTEDPRTFGGGTKVEIKR
notes: Tested in Formulation A (25 mg/mL antibody, 50 mg/mL sucrose, 0.2 mg/mL polysorbate 80, 10 mM histidine pH 5.8, 70 mM L-arginine-HCl); also called Ab6; anti-LAG3 drug product
- binding result: binds
